Measurements published in patent publication US20190144566A1 (ORUM THERAPEUTICS, published 2019).

Molecular target: T1, mCherry (red fluorescence) H-RAS G12V (UniProt P01112 1-186)
T1 construct: Expressed inside NIH3T3 cells, located at the inner cell membrane; also called intracellular H-RAS G12V mutants; not shown: mCherry red fluorescent protein
Test: confocal co-localisation in NIH3T3 cells expressing mCherry H-RAS G12V

B1: cytosol-penetrating antibody (cytotransmab) TMab4 (antibody, V domains shown)
VH: EVQLVESGGGLVQPGGSLRLSCAASGYTFTSYVMHWVRQAPGKGLEWVSAINPYNDGNYYADSVKGRFTISRDNSRKTLYLQMNSLRAEDTAVYYCARGAYKRGYAMDYWGQGTTVTVSS
VL: DLVMTQSPSSLSASVGDRVTITCKSSQSLFNSRTRKNYLAWYQQKPGKAPKLLIYWASTRESGVPSRFSGSGSGTDFTLTISSLQPEDFATYYCQQYYYHMYTFGQGTKVEIKR
notes: Intact IgG-format monoclonal antibody with CH1-hinge-CH2-CH3 and CL; Used as negative control in the RAS assays; also called CT
  binding result: no binding (tested: 2 µM)
